# Test: label from the status in PepcDB records
row,Sequence,protein production
1,MPPRKKPKSSALKSNKQSSANHSSQPSTFGIQQLFLRHIQNSQSTSNSHTSTADPVDQQNVNGLASDTAVLTPQNPLGTSNEKPDESKDMDQQLTEASPKISKNLKRFSPGMLIKQSQDDCGGEITWKISPVNERLRAAAKNIPKMMDLTENSLGKQCPTSGITSKVEQWLSSPSKKASKRPAFATNRVMERVNPSPDAEFEIVNTSSSGNSPFQTPPSLSCPHNKLPCTVTCSGACGSMGAGQHKKALLELLDQVEDVIAVDDKTTDDVGIVMPQARVKDDIISSVVDCAVDEGPVSLPKMQNSINPDSYFLVLEVSEKRGSGSSSKGQCPYKVLRLLDEHTGVECALYLWDEWFYSTVSPGDSINVIGEFDGDGKCDVDRQNNFLIVHPDTLVAGTRVAASFGCPRRTVLDERLRSNEHATVALLGTLQHQVFQAGLSQESPSVDGLQEYASTVIEKSIESLYACGVHEGDVRSTLFKAIPKMLNWIEHFRYSKDSEVSKVDFGSTIGKKAVKVSEVIDIEEMSWAPKYGLKGMIDASVRVIVESDMNTVNEKIMPLEFKSGKAPSGQSSIEHSAQVILYTLLMSERYLKHIDNGLLYYLQSDQTQGISVQRSDLVGLIIRRNELANDILVASTTQQLPPMLRADGGNTESSGLGDVFDTHVSHLSTLHFNFLRHWDRLIDLEGREMQLLRKDIAHPHGSKGSHSASYLSSMVLDVTNGFQHHNSHKETRFIYRFVRQKSSESRERVTSEDMIRTGNLATDDLDCKLRTGDRVILRTEVSHLTVANGIIADISRTHISVSLSKRLRLPWSEPSSEVSNLSHELWRIYKDEFMTSFSVMRFNLMQLFVQNGHNIRKMIVDLEPPRFDNGSILSQDPAISYIWSEKSLNNDQRQAILKILTAKDYALILGMPGTGKTSTMVHAVKALLIRGSSILLASYTNSAVDNLLIKLKAQGIEFLRIGRDEAVHEEVRESCFSAMNMCSVEDIKKKLDQVKVVASTCLGINSPLLVNRRFDVCIIDEAGQIALPVSIGPLLFASTFVLVGDHYQLPPLVQSTEARENGMGISLFRRLSEAHPQAISVLQNQYRMCRGIMELSNALIYGDRLCCGSAEVADATLVLSTSSSTSPWLKKVLEPTRTVVFVNTDMLRAFEARDQNAINNPVEASIIAEIVEELVNNGVDSKDIGIITPYNSQASLIQHAIPTTPVEIHTIDKYQGRDKDCILVSFVRSREKPRSSASSLLGDWHRINVALTRAKKKLIMVGSQRTLSRVPLLMLLLNKVKEQSGILNLLPGDLKP,failed
2,MATFSLGKHPHVELCDLLKLEGWSESGAQAKIAIAEGQVKVDGAVETRKRCKIVAGQTVSFAGHSVQVVA,not failed
3,MEDPLGRLEWIKFLSAFYDKEDKAENYFNQQVSKVMATENKVSSLKKPKVAFGMVDNGKVYIPAKNSYAAKMVDMAGGDYIFKDLNNKSGYITLEDFYSKSKDADVLIYSSSKEYTPSLKSMLSAAPILKTIKPVKNKKVWCFGKDYYQAIDKTDEIIEDLASIFHPESFKGYKIKHYSHLEHHHHHH,not failed
4,MKDETNIKTIALAIVLIAGYNVYTSQQDVKMFSLTLANIEALAMDETTQCDNANGYRRILEGDERIYDCCYLEKVGKLEHHHHHH,failed
5,MSNGTPQKTKLHFPHTYALIFFIIILAALASYFIPSGEFKRVEEDGQTVIVQGSYKQTDAGPVGFFEMFKAIPEGMIQSADIIFYIFLIGGAFGIIHQTGMIRAGVHVLVQRLKKRGFLLIPVTMFVFSIGGATIGLSEETIIFIPIGIAVARALGYDSMTGLAMISLGAAAGFTGGMLNPFTVGIAQTIAEVPVFSAFGYRLAVYAAMLGFSIFYVMRYAQQVKAHPNTGLMYGSETEINEETAAGHADLSFTGRHGLVLLITALGFGINMFGVFQWGWFLSELSAGFLIIGFAAGLAGGRGINNTFHSFVDGMKQVVYGALIVGFARAIVIVLENGHIIDTIINSLASAISSLPNEISAIGMFAVQIAINTFIPSGSGQAATTMPLMAPLADLLGFERQIAVFAYQYGDGITNSIIPTSGVLLASLSIAGVPYERWVKFVWKLIAGWIIIGAAAIVIAMIIGIK,failed
6,SHRSAAAFVDAERELFVRDQPIGPDDRVLAGLSVAFDASCEEMWLAWGHGACLVPAPRSLVRTGLDLGPWLISRDISIVSTVPTLAGMWPAEALDNVRLLILGGEACSAELVARVASSRREVWNTYGPTEATVVTCAARLEAGQPVAIGLPLAG,failed
7,SDNLSSEEIQQRAHQITDESLESTRRILGLAIESQDAGIKTITMLDEQKEQLNRIEEGLDQINKDMRETEKTLTELNKCCGLCVCPCNRTKNFESGKAYKTTWGDGGENSPCNVVSKQPGPVTNGQLQQPTTGAASGGYIKRITNDAREDEMEENLTQVGSILGNLKDMALNIGNEIDAQNPQIKRITDKADTNRDRIDIANARAKKLIDS,not failed
8,MTDSKYISIKGARVNNLKNIDVNIPRNKLVVITGLSGSGKSSLAFDTLYAEGQRRYVESLSSYARQFLGRMSKPECDFIKGIPPAIAIEQKVNSRNPRSTVGTSTEIYEYLRLLYARVGKTYSPVSGEEVKKHSIEDIVNCMLSYPEGTRYTVLTQIYLHDGRTLEQQLEIDRKQGFNRLEVNGEMVRIDEYAAGKEDVVYLLVDRMTAAKSKDAISRLTDSAETAMYEGDGMCMLRFYQPDGTTRLHTFSTKFEADGMTFEEPNDQMFSFNSPIGACPVCEGFGKVIGIDEHLVVPNRSLSVYDGAIVCWRGEKMGEWREELIHNAEKFNFPIFTPYYELTDEQRRVLWEGNQYFHGINDFFKMLEENQYKIQYRVMLARYRGKTLCPKCHGTRLKPEAGYVRVGGKNISELVDLPITELQKFFDSLTLNEHDQAVARRILTEINSRIRFLIDVGLGYLTLNRLSNSLSGGESQRINLATSLGSSLVGSLYILDEPSIGLHSRDTDRLVHVLRQLQQLGNTVVVVEHDEEIIRAADYIIDIGPNAGRLGGQVVYEGDMKDLKKGSNSYTVKYLLGEETIPVPEHRRPWNNYIEIKGARENNLKGVDARFPLNVMTVVTGVSGSGKSTLVRDIFYRALKRELDECSERPGEFVSIEGDLRNLRNVEFVDQNPIGKSSRSNPVTYIKAYDEIRKLWADQPLAKQMGYTAGHFSFNNEGGRCEECKGDGTITVEMQFMADLVLECESCHGKRFKADTLEVKFQDKNIYDILEMTVNQAIEFFTEHGQKKVVKKLIPLQDVGLGYIKLGQSSSTLSGGENQRVKLAYYLSQEKADPTLFIFDEPTTGLHFHDIRKLLDAFDALIRRGHSIVIIEHNMDVIKCADYVIDLGPEGGDKGGNIVATGTPEEVAACAASYTGQFLQEKLNHL,failed
9,MDGSIRVSAKTVDDAITEALIQLGVTSDRLEYEVIEKGSSGFLGIGMKQAVIEARRKPEPVAEVKEETIPVEEVKPSVVKEQVSEPVQEKQEEKAEEEPARKKATELAEVSDEAIKAVEAFLNDTLKAMDMDVEIVSEVDSEGALSVEMKGSNMGILIGKRGQTLDALQYLANRVANKHQDGYVRVKLDTENYRARREETLRHLAKNIAFKVKRTRRAVSLEPMNPYERRIIHAALQSDPHVTTHSEGEEPYRKVVVTLKR,failed
10,MELLLGIVIVVTCWMVVRIIRSSKNQEGYKRWRAGNYASENPYAKEKASGPLSQGLFSKRVRTTGVRRFDDGAIRWCANLLATEESRLREVLDYIPRQYTCFHVRKRSGGFRYISAPAGDFRSMQQTIYHRILLLANIHPAVTGFCPGKSVSDNARVHLGRKNVLKVDLHDFFPSIRSPRVRAAFREMGYSRPIAKVLAELCCLRCCLPQGAPTSPALSNIIAYPMDKKMMALAGEYGLVYTRYADDLTFSGDYLPKDEVLVRIHRIIREEGFTMNVKKTRFLSEHKRKIITGVSVSSGKKMTLPKVKKREIRKNVHYVLTKGLVGHQEHIGSTDPVYLKRLLGSLCYWRSIEPDNRYVSDSITALKRLM,failed
11,MTQKEWPLWEVFVRSKQGLEHKHCGSLHATDAQQALHMARDVYTRRQEGVSIWVVPSTAITASAPEEKPELFDPMADKIYRHPTFYQLPDEVNHM,not failed
12,MKPVKPPRINGRVPVLSAQEAVNYIPDEATLCVLGAGGGILEATTLITALADKYKQTQTPRNLSIISPTGLGDRADRGISPLAQEGLVKWALCGHWGQSPRISDLAEQNKIIAYNYPQGVLTQTLRAAAAHQPGIISDIGIGTFVDPRQQGGKLNEVTKEDLIKLVEFDNKEYLYYKAIAPDIAFIRATTCDSEGYATFEDEVMYLDALVIAQAVHNNGGIVMMQVQKMVKKATLHPKSVRIPGYLVDIVVVDPDQSQLYGGAPVNRFISGDFTLDDSTKLSLPLNQRKLVARRALFEMRKGAVGNVGVGIADGIGLVAREEGCADDFILTVETGPIGGITSQGIAFGANVNTRAILDMTSQFDFYHGGGLDVCYLSFAEVDQHGNVGVHKFNGKIMGTGGFIDISATSKKIIFCGTLTAGSLKTEIADGKLNIVQEGRVKKFIRELPEITFSGKIALERGLDVRYITERAVFTLKEDGLHLIEIAPGVDLQKDILDKMDFTPVISPELKLMDERLFIDAAMGFVLPEAAH,not failed
13,MAYDIERYLDIRGAGDPTYGPTGELAFTLGTTGTAQVWALGAPGAWPTQLTFHDERVQWASFSPTREELAYGMDTGGDEFTQLHRVSGDGSEDVQLTAFPDAKHDWGGWSHDGDRIAYTANRRDASRFDVYVQGRDEAGANADCVRVGDTFDLPSVVGWSPSDDRLLVVDTHSNFDQDVAVLDVDTGEITRATAGLDADTRFSWVAWAPDGGGVYVTTDHDADTRYLGLLDPETGAISRVADGGDWPIEAVVTAHDAGRLAYVRNRDGYSELTIADAAGTTLTEQPTPELPDGVIRGLSWGPDGDTLAVVVSAATENPNVFVVDVATGAATQWTNAATAGIPKSTFREPELVRYETFDGREIPALFTRPDGDGPHPVIVDFHGGPEGQRRPSFLSLRQYFVDNGYAVFEPNVRGSSGYGATYMNLDNVRNRMDAVADGKAGVEWLTARTDIDADRVVAYGGSYGGFMVLASLTEYPELWAAGVDIVGIANFVTFLENTGDWRREHRESEYGSLDADREFLESISPTNNADRIRAPLLVLHGANDPRVPVGEAERIVEQASAHVPVEKHVFDDEGHGFSKRANKQAAYRAVVDFLDDHALEHHHHHH,failed
14,MSIISLDTRVKVGNTDYALSELFELVDQQTSDYGTSLNALKQAVVSGDLTIIQQVLQNSAAALRSLASLQNTLEKVLTLDLADPAQPEHVFIVEDSRGATELKLYKSHYTIGKADSCDIRLHSIYASRQHATLVRFLTENGEVRYRLIDGDPETSRRSANGTYVNNRSITECDLKHYDQILFGADVKATYFYLSPQFRSLTGLQDPTVSLSPDSTTEFEA,failed
15,MGSLQPDAGNASWNGTEAPGGGARATPYSLQVTLTLVCLAGLLMLLTVFGNVLVIIAVFTSRALKAPQNLFLVSLASADILVATLVIPFSLANEVMGYWYFGKAWCEIYLALDVLFCTSSIVHLCAISLDRYWSITQAIEYNLKRTPRRIKAIIITVWVISAVISFPPLISIEKKGGGGGPQPAEPRCEINDQKWYVISSCIGSFFAPCLIMILVYVRIYQIAKRRTRVPPSRRGPDAVAAPPGGTERRPNGLGPERSAGPGGAEAEPLPTQLNGAPGEPAPAGPRDTDALDLEESSSSDHAERPPGPRRPERGPRGKGKARASQVKPGDSLPRRGPGATGIGTPAAGPGEERVGAAKASRWRGRQNREKRFTFVLAVVIGVFVVCWFPFFFTYTLTAVGCSVPRTLFKFFFWFGYCNSSLNPVIYTIFNHDFRRAFKKILCRGDRKRIV,failed
16,MSHPSYPPAPQNDAGAGIPQVPAAPYAYGRQFQGGAQPGYQPGPDSGPYGSPVGAPAKSFMTTWILALLLGSFGVDRFYLGKIGTGIAKLLTAGGFGIWSIVDLIITLTGNARDKQGRPLAGYPENKKKAWIITIVVWFAGLIVGIVSTVLSLTFVAAAVQGAGTDAPVLPSASQEAPAPSSGTASDDGSLTVTMSEGNTVKVSLLNSGYTTEIPGMSYMKPTRGGFLLLEVSWEATAGSSYASPSNFEAFDADGAKGEEIYVEEGLGGLPSGDVAAGEMQRGVIAFDIKNGPTTVVISDDFGDKAATFTLTPAN,failed

# Source: a protein production outcome set (Wang et al. 2014)
